Measured values published in PMC3620356.

How the values were obtained:
[1] = target: 426c Env trimeric gp140 (wild type) (HIV-1 clade C, isolate 426c (HVTN503 participant)) (UniProt M4Q8P8); experiment: BLI
[2] = target: mature NIH45-46 IgG (human); experiment: BLI

Row | Kd [1] | Substance | Kd [2]
1 | 10.6 nM | mature NIH45-46 IgG (antibody) | –
2 | – | 426c Env trimeric gp140 lacking the NLGS at position 276 (N276D) (natural protein) | 3.66 nM
